The source of these data is article PMC3177189.

Read-outs that look alike come from different tables or passages of the source.

One data set concerns the target EcNusB wt (Escherichia coli, UniProt P0A780 1-139). The data set can be described thus: NMR.
Data set [1] concerns the target T1, AaNusB;AaNusE (S10) loop deletion (Aquifex aeolicus;Aquifex aeolicus, UniProt O66530;O66430 1-148;1-46+=S+69-104, |internal_change).
T1 sequence 1: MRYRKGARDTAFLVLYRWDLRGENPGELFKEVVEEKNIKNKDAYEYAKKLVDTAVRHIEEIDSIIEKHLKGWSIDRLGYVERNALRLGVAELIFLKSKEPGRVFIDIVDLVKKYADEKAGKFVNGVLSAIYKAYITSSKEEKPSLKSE
T1 sequence 2: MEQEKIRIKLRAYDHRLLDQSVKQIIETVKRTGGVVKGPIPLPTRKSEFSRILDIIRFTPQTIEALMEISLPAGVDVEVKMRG
Kind of data set: crystal structure.

Another data set addresses EcNusB F122D (Escherichia coli, UniProt P0A780 1-139, F122D). The data set can be described thus: ITC.
Data set [2] deals with T1, AaNusB;AaNusE (S10) loop deletion. The data set can be described thus: crystal structure. The source holds these as a separate data set.

GCCGCGCCGCUGAGAAAAAGCGAAGCGGCACUGCUCUUUA (structured_RNA) [EcBoxA-BoxB]: the binding result with EcNusB wt is “binds”.
In the case of GGCUCCUUGGCA (ssRNA) [AaBoxA], in data set [1], the binding result is given as “binds”.
For UGCUCUUUAACA (ssRNA) [EcBoxA], in the data set with EcNusB F122D, the binding result was “no binding”.

B1: AaBoxA duplex (dsRNA) (dsRNA)
RNA 1: GGCUCCUUGGCA
RNA 2: GGCUCCUUGGCA
Turning to B1, in data set [2], the binding result was “binds”.
